Experimental data from the supplement of paper PMC9170038.

Columns and labels:
MS2 coat protein [1] = assay: apparent KD of MS2 coat protein, switch OFF state (with FMN for OFF switches, without FMN for ON switches); designed switch direction (-1 OFF switch, 1 ON switch): 1; higher = weaker reporter binding; conditions: FMN input: 0 or 200 uM; Eterna round: R93 (includes R88 designs)
Outline: (§1)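 The buffer was 100 mM Tris-HCl pH 7.5 with 80 mM KCl and 4 mM MgCl2, used without or with constant ligand. In it, RNA switches transcribed on-chip from Illumina sequencing clusters were titrated with SNAP-549-labelled MS2 coat protein in twofold steps from 0.7 or 1.5 nM to 3 µM. Apparent KD for each design is the median of its normalised cluster binding-curve fits.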

MS2 coat protein [2] = assay: apparent KD of MS2 coat protein, switch ON state; designed switch direction (-1 OFF switch, 1 ON switch): 1; higher = weaker reporter binding; conditions: FMN input: 0 or 200 uM; Eterna round: R93 (includes R88 designs)
Outline: as §1

| Sequence | apparent KD of MS2 coat protein (MS2 coat protein [1]) | apparent KD of MS2 coat protein (MS2 coat protein [2]) |
| --- | --- | --- |
| GAAAAACAUGAGGAUCACCCAUGUGAAAACUUGGGAGGAUAUACAAAGACGAAAGUCGAAGUAGAAGGCCUAAAAG [Same State 1.4k (Mat - Mod of Eli - )] | 106 nM | 17.2 nM |
| AAAAAACAUGAGGAUCACCCAUGUAAUACAACGUCAGGAUAUUGAUUUUAUUAUGUAUUGCAAGAAGGGACAAAAA [Same State 1.3 (Same State 1 - Omei 2 - one GC added)] | 144 nM | 161 nM |
| AAAAAACAUGAGGAUCACCCAUGUCUUCGGACAUGAGGAUAUGUACAGACUUCGGUCUGUACAGAAGGCAUGAAAA [SS1 - 1013] | 39.5 nM | 256 nM |
| AAAAGACAUGAGGAUCACCCAUGUUAAGACGUGGGAGGAUAUGCAUGGAAAACAUGCUGUGCAGAAGGCCCGUGUC [SS1 - 23] | 78.6 nM | 19.8 nM |
| GAAAAACAUGAGGAUCACCCAUGUAGAAAUAUGGGAGGAUAUACAAAGACGAAAGUCAAAGUAGAAGGCCCAUAAG [Starry Same State 1.6 (mat747 round 1 mod)] | 16.2 nM | 13.7 nM |
| AGACAUAAAAGAGAGGAUAUCCAAAAGAAAACAUGAGGAUCACCCAUGUAAAAGAAAAUAAAAUGGGAGAAGGCUCACAUACAGA [Topaz 35] | 50.4 nM | 19 nM |
| UAAAAACAUGAGGAUCACCCAUGUAAGAUAAACACAGGAUAUGCGAAAAGAAAGAAAGAAGCAGAAGGGUGAAAAU [Mat - Same State 1 - Tesla mod - 43] | 41.6 nM | 15.9 nM |
| AAAAAACAUGAGGAUCACCCAUGUGCAAAAUUCGCAGGAUAUUCCUCAAUUAAAUGAAAGGAAGAAGGGUGACAAA [Nob's Hobby 30 - Jieux - Same State 1] | 253 nM | 92.6 nM |
| AAAAAACAUGAGGAUCACCCAUGUGAAAAUAUGGGAGGAUAUCAUGGAAAAAAAAAAACAUGAGAAGGCCCAGAAA [SS! 1 MT 11] | 67.1 nM | 13.7 nM |
| GAAAAACAUGAGGAUCACCCAUGUAGAAACUAGGGAGGAUAUACUAAGACGAAAGUCGAAGUAGAAGGCCUUUAAA [Same State 1.4m (Mat - Mod of Eli - )] | 14.7 nM | 14.2 nM |
| AACAAUCUAUCUGAGGAUAUGUGUCGAAAGACAUGAGGAUCACCCAUGUGAAAACAUGAAAAGAUACAGAAGGCAGAUAGAUUGA [SS2: 1155] | 35.9 nM | 26.6 nM |
| AAAAAACAUGAGGAUCACCCAUGUAUAAAAAUGGGAGGAUAUACUAAGACGAAAGUCAUAGUAGAAGGUCUAAAAA [76%, Meechl, 11] | 241 nM | 137 nM |
| GAAAAACAUGAGGAUCACCCAUGUAGAGAUAUGGGAGGAUAUACAAAGACGAAAGUCGAGGUAGAAGGCCUAAAAG [Garnet 55] | 116 nM | 24.4 nM |
| CGAGUACAUGAGGAUCACCCAUGUUAUGAAUUGUCAGGAUAUGGAUAAAGGUGACAUGCGCCAGAAGGGACGUAUG [JR_SS001_Sub1006] | 43.7 nM | 36.9 nM |
| AAAAUAAAAAGGUAGGAUAUGGGUAAACCUACAUGAGGAUCACCCAUGUAAUAAAAAGAAAAAAACCAGAAGGACCAAAAUAAAA [72%, More Wateronthemoon, 9] | 55.2 nM | 12.8 nM |
| AAAUAAAGGAUUAAGGAUAUAUCACAUGAAACAUGAGGAUCACCCAUGUAAUAAUAUAAAGGGUGAUAGAAGGUAGUUUAUAAAUA [High Roller2] | 242 nM | 295 nM |
| AGCACGUGAUUGGAGGAUAUGUAGUAAGCAACAUGAGGAUCACCCAUGUCUGAGGCUGAAAACCAGCAGAAGGCCGAUACAACCA [SS2-1.6] | 22.7 nM | 15.3 nM |
| AUAAAACAUGAGGAUCACCCAUGUAAUAAGAACCGAGGAUAUGGAAAUAAUAAUAAUAAACCAGAAGGUGGUGAUC [Meechl MS2 SS1] | 105 nM | 110 nM |
| AUAUGAGCUAUGGAGGAUAUCCACAAUAAAACAUGAGGAUCACCCAUGUAAGAAAGAAAAGAAUGGGAGAAGGCCAUAGCUCAAU [SS 2 M45] | 17.5 nM | 7.54 nM |
| GAAAAACAUGAGGAUCACCCAUGUAGAAAUAUGGGAGGAUAUACAAACUCGAAAGUCAAAGUAGAAGGCCUAAAAG [Garnet 29] | 224 nM | 107 nM |
| AAUAUAUUAAGUGAGGAUAUCAUAGGAAAAACAUGAGGAUCACCCAUGUGGGAAACCUGGUCGGGUGAGAAGGUGCUUAAUAUAU [Samwise Clockwise 32 - Jieux - Same State 2] | 235 nM | 50.6 nM |
| AGGAGACAUGAGGAUCACCCAUGUGAGAAGAGGCGAGGAUAUCGAAAGAAAGAAGAGAAACGAGAAGGCGCGAGAU [salish99-SS1-021] | 38.7 nM | 25.1 nM |
| CAUCAACAUGAGGAUCACCCAUGUCAGUGAUGUCAAGGAUAUGGGAGACAUAAAAUUCUUCUAGAAGGUGAAAGAU [Orlaanar] | 125 nM | 209 nM |
| AGACAUAACAGAGAGGAUAUCCAAUAGAAAACAUGAGGAUCACCCAUGUGAAAGAAAAUAAAAUGGGAGAAGGCUCACAUACAGA [Topaz 39] | 23 nM | 5.57 nM |
| AAACCACAUGAGGAUCACCCAUGUAAAAAUAUGGAAGGAUAUGCGAAAAGAAACAAAGAAGCAGAAGGUCUAAAAA [75%, Ex sub1, 20] | 27.7 nM | 15.2 nM |
| AAGAAACAUGAGGAUCACCCAUGUGAAAUAAACACAGGAUAUGCGAAAAGAAACAAAGAAGCAGAAGGGUGAAGAA [Mat - Same State 1 - Tesla mod - 57] | 44.1 nM | 15.1 nM |
| AGAAAUAAAAGAGAGGAUAUCCAAAAGAAAACAUGAGGAUCACCCAUGUGAAAGAAAAGAAAAUGGGAGAAGGCUCAAAAUAAGA [Topaz 18] | 55.4 nM | 22.5 nM |
| AAAAAACAUGAGGAUCACCCAUGUGCAAAAUUCGCAGGAUAUUCUUUUUUUAAAUGAGAGGGAGAAGGGUGUAAAA [Nob's Hobby 21 - Jieux - Same State 1] | 22.4 nM | 25.5 nM |
| AAGAAAGAAACGUAGGAUAUCAAGAAUAUAACAUGAGGAUCACCCAUGUAAAUACGAAAGUAUAAUGAGAAGGAUGGAUGAUCUUC [Mod of Mat of Meechl] | 32.8 nM | 22.7 nM |
